Values joined by “and” are separate entries in the source; they are usually repeats but may differ in a detail not shown here. Identical values can stand only once.
Target: the molecule itself
Assay: SDS-PAGE and immunoblot of detergent-solubilised mitochondrial membranes; HT-29 mitochondrial membranes solubilised in SDS or 0.1% DDM, 4%-12% Tris-glycine SDS-PAGE, anti-TSPO blot; cells untreated or treated with 10 ng/mL TNF, 1 uM PK 11195 or both for 24, 48 or 72 h

B1: translocator protein (18 kDa; tryptophan-rich sensory protein oxygen sensor, TSPO) (natural protein, human (endogenous in HT-29), UniProt P30536 1-169, looked up)
chain: MAPPWVPAMGFTLAPSLGCFVGSRFVHGEGLRWYAGLQKPSWHPPHWVLGPVWGTLYSAMGYGSYLVWKELGGFTEKAVVPLGLYTGQLALNWAWPPIFFGARQMGWALVDLLLVSGAAAATTVAWYQVSPLAARLLYPYLAWLAFTTTLNYCVWRDNHGWRGGRRLPE
notes: translocator protein (18 kDa), TSPO, human, endogenous in HT-29 colon carcinoma cells; Seen as monomer, dimer and trimer bands on an anti-TSPO blot; also called peripheral-type benzodiazepine receptor; mitochondrial translocator protein; source: endogenous, HT-29 mitochondrial membranes solubilised with SDS or 0.1% DDM
B1 was tested, and the “stoichiometry N” value was 3 and 2.
